Experimental findings from US20250277026A1 are described below.

The term EC50 (read off the curve) denotes the concentration at which the effect is half-maximal. A lower EC50 (read off the curve) goes with greater potency.

Experiment [1] addresses human Claudin-3 (human) (UniProt O15551). The experiment can be described thus: FACS, Claudin-3-CHO-K1 cells (data not shown in the figures). On the technique in general: Flow cytometry measures light scatter and fluorescence of single cells or particles in a stream.
Experiment [2] concerns the target human Claudin-4 (human) (UniProt O14493). Description: FACS, Claudin-4-CHO-K1 cells.
The target is the same in experiment [3]. The experiment can be described thus: FACS, Claudin-4-CHO-K1 cells, serial dilution of the antibody, MFI.
For experiment [4] the target is unchanged. The experiment can be described thus: FACS, MCF7 cells (endogenous CLDN3 and CLDN4).
Experiment [5] concerns the target human Claudin-3 (human) (UniProt O15551). Description: FACS, Claudin-3-CHO-K1 cells, 5 µg/ml.
Experiment [6] has the same target. The experiment can be described thus: FACS, MCF7 cells (endogenous CLDN3 and CLDN4).
Experiment [7] has the same target. Description: FACS, Claudin-3-CHO-K1 cells, serial dilution of the antibody, MFI.

Sequence of human Claudin-3 (human) (O15551 whole entry): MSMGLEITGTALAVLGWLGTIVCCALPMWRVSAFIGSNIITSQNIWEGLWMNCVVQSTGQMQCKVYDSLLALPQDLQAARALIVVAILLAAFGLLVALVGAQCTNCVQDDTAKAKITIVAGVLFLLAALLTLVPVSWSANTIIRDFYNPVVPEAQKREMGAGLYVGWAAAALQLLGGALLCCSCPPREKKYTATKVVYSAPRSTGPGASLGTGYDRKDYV
Sequence of human Claudin-4 (human) (O14493 whole entry): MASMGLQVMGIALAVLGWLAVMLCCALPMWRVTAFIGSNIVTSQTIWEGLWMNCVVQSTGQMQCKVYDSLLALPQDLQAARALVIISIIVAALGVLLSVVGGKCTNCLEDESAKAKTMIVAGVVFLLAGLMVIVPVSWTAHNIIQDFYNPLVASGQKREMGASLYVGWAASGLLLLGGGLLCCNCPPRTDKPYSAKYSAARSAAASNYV

Turning to anti-Claudin-4 antibody MAB4219 (R&D), the fold MFI over isotype control in the experiment with human Claudin-3 (human) [1] was 9.7 fold; in the experiment with human Claudin-4 (human) [2], 33 fold; with human Claudin-4 (human) [4], 15 fold. The same substance had an EC50 (read off the curve) in the experiment with human Claudin-4 (human) [3] of 2 nM.
In the case of anti-claudin 3 antibody MAB4620 (R&D), the fold MFI over isotype control in the experiment with human Claudin-3 (human) [5] came to 61 fold; in the experiment with human Claudin-3 (human) [6], 20 fold. In the experiment with human Claudin-3 (human) [7], this substance displayed an EC50 (read off the curve) of 0.6 nM.
